Experimental findings from publication PMC2759312 are described below.

This data set has as its target gamma complex labeled with AF488 on delta' (gammac-AF488);beta sliding clamp (Escherichia coli;Escherichia coli, UniProt P06710-2;P28630;P28631;P28905;P28632;P0A988 1-431;1-343;1-334;1-147;1-137;1-366, |). Description: fluorescence anisotropy.

B1: p/t-DNA-RhX (30-nt primer on 60-nt template) (dsDNA)
DNA 1: TTCAGGTCAGAAGGGTTCTATCTCTGTTGGCCAGAATGTCCCTTTTATTACTGGTCGTGT
DNA 2: ACACGACCAGTAATAAAAGGGACATTCTGG
modifications: C6-amino linker at 5' end of 60mer
Consider B1, for which the binding result was “binds”.
